Measured values as given in publication PMC3617563 (Biochemistry, 2012).
Like-named read-outs stand apart in the source and are kept apart here.

Legend:
[1] = target: T1, native ubiquitin (monoubiquitin) (UniProt P0CG48 1-76); test: stopped-flow fluorescence
[2] = target: T2, Ub-AMC (ubiquitin-7-amino-4-methylcoumarin) (human, UniProt P0CG48 1-75, 7-amino-4-methylcoumarin (AMC) on the C-terminal glycine); test: stopped-flow fluorescence
[3] = target: T1, native ubiquitin (monoubiquitin); test: stopped-flow fluorescence; remark: listed apart in the source
[4] = target: T2, Ub-AMC …; test: stopped-flow fluorescence; remark: listed apart in the source
[5] = target: T2, Ub-AMC …; test: other fluorescence titration

Row | koff [1] | kon [1] | Kd [2] | koff [3] | kon [3] | koff [4] | kon [4] | Kd [5] | Binder
1 | 2.64 ± 0.56 s⁻¹ | 400000 ± 10000 M⁻¹ s⁻¹ |  |  |  |  |  |  | wild-type USP2 catalytic core (human ubiquitin-specific protease 2, amino acids 259 to 605) (domain or fragment, UniProt O75604 259-605, looked up) NSKSAQGLAGLRNLGNTCFMNSILQCLSNTRELRDYCLQRLYMRDLHHGSNAHTALVEEFAKLIQTIWTSSPNDVVSPSEFKTQIQRYAPRFVGYNQQDAQEFLRFLLDGLHNEVNRVTLRPKSNPENLDHLPDDEKGRQMWRKYLEREDSRIGDLFVGQLKSSLTCTDCGYCSTVFDPFWDLSLPIAKRGYPEVTLMDCMRLFTKEDVLDGDEKPTCCRCRGRKRCIKKFSIQRFPKILVLHLKRFSESRIRTSKLTTFVNFPLRDLDLREFASENTNHAVYNLYAVSNHSGTTMGGHYTAYCRSPGTGEWHTFNDSSVTPMSSSQVRTSDAYLLFYELASPPSRM
2 |  |  | 5.5 µM | 7.54 ± 2.6 s⁻¹ | 480000 ± 50000 M⁻¹ s⁻¹ | 1.82 ± 0.17 s⁻¹ | 330000 ± 20000 M⁻¹ s⁻¹ | 2900 ± 600 nM | C276A USP2 catalytic core (inactive active-site mutant) (domain or fragment, human, UniProt O75604 259-605, looked up) NSKSAQGLAGLRNLGNTAFMNSILQCLSNTRELRDYCLQRLYMRDLHHGSNAHTALVEEFAKLIQTIWTSSPNDVVSPSEFKTQIQRYAPRFVGYNQQDAQEFLRFLLDGLHNEVNRVTLRPKSNPENLDHLPDDEKGRQMWRKYLEREDSRIGDLFVGQLKSSLTCTDCGYCSTVFDPFWDLSLPIAKRGYPEVTLMDCMRLFTKEDVLDGDEKPTCCRCRGRKRCIKKFSIQRFPKILVLHLKRFSESRIRTSKLTTFVNFPLRDLDLREFASENTNHAVYNLYAVSNHSGTTMGGHYTAYCRSPGTGEWHTFNDSSVTPMSSSQVRTSDAYLLFYELASPPSRM
